This assay has as its system Balb/c mice. Put plainly: Blood sugar regulation in mice in vivo after intraperitoneal drug and glucose injection. The following applies: 3 hours after administration; 100 μl of 10 nmol/L drug i.p. with 200 μl of 40% glucose; FIG. 5. The protocol:
After fasting overnight, mice were intraperitoneally injected respectively with 100 μl of different drugs that were dissolved to 10 nmol/L in a 10 mmol/L sodium phosphate buffer (pH6.5), and meanwhile injected with 200 μl of glucose solution (40%). Blood was sampled at 30, 60, 120, and 180 min after drug administration and blood sugar was assayed (Blood sugar meter, LifeScan, Inc.). Then, 200 μl of glucose solution (40%) was intraperitoneally injected again at 24 hours, 48 hours, 72 hours and 96 hours after drug administration, respectively. Blood was sampled at 30 and 60 min after glucose administration and blood sugar was assayed (Blood sugar meter, LifeScan, Inc.).

Bridge positions count the residues as written; N and C are the ends. Ends that are not written are not given here. I, II: the chains in the order shown.

B1: Ex4C-Ex4C: Homodimer of Ex4C(NH2) (SEQ ID NO: 3), joined by a disulfide bond between the C-terminal Cys residues (peptide)
chain 1: HGEGTFTSDLSKQMEEEAVRLFIEWLKNGGSGGSC
chain 2: B1 chain 1
modifications: disulfide homodimer, C-terminal amide; Ex4C peptide sequence
B1: the blood sugar level entry is listed as “well-regulated”.

B2: Di-GLP-G8C: Homodimer of GLP-G8C (SEQ ID NO: 4), formed by oxidation at the C-terminal Cys (peptide)
chain 1: HGEGTFTSDVSSYLEGQAAKEFIAWLVKGGGGGSC
chain 2: B2 chain 1
modifications: disulfide I:35-II:35
Regarding B2, the blood sugar level entry is “well-regulated”.

The record behind these values is patent US8557771B2, “Homodimer of insulinotropic peptide analogues and method for preparation thereof and use thereof” (Chongqing Fagen Biomedical Inc., priority 2009, dated 2013).
